For orientation: stoichiometry N means the number of molecules, sites or subunits per partner or assembly.

The values that follow come from article PMC11401937 (Nature Communications, 2024).

The data set deals with the molecule itself. The data set can be described thus: cryo-EM structure.

B1: Human Best1 protein purified for cryo-EM (GABA-bound pentamer) (natural protein)
chain: TITYTSQVANARLGSFSRLLLCWRGSIYKLLYGEFLIFLLCYYIIRFIYRLALTEEQQLMFEKLTLYCDSYIQLIPISFVLGFYVTLVVTRWWNQYENLPWPDRLMSLVSGFVEGKDEQGRLLRRTLIRYANLGNVLILRSVSTAVYKRFPSAQHLVQAGFMTPAEHKQLEKLSLPHNMFWVPWVWFANLSMKAWLGGRIRDPILLQSLLNEMNTLRTQCGHLYAYDWISIPLVYTQVVTVAVYSFFLTCLVGRQFLNPAKAYPGHELDLVVPVFTFLQFFFYVGWLKVAEQLINPFGEDDDDFETNWIVDRNLQVSLLAVDEMHQDLPRMEPDMYWNKPEPQPPYTAASAQFRRASFMGSTFNISLNKEEMEFQPNQEDEEDAHAGIIGRFLGLQSHDHHPPRANSRTKLLWPKRESLLHEGLPKNHKAAKQNVRGQEDNKAWKLKAVDAFKSAPLYQRPGYYSAPQTPLSPTPMFFPLEPSAPSKLHSVTGIDTKDKSLKTVSSGAKKSFELLSESDGALMEHPEVSQVRRKTVEFNLTDMPEIPENHLKEPLEQSPTNIHTTLKDHMDPYWALENRDEAHS
In the case of B1, the “stoichiometry N” value was determined as 5.
